Measured values taken from patent publication US20240399042A1.

Legend:
[1] = biological target: Ebola-Zaire-sGP: Soluble glycoprotein (sGP) released from infected cells (Ebola, species Zaire ebolavirus) (UniProt P60170)
Ebola-Zaire-sGP: Soluble glycoprotein (sGP) released from infected cells (Ebola, species Zaire ebolavirus), sequence (P60170 33-324 limits assumed): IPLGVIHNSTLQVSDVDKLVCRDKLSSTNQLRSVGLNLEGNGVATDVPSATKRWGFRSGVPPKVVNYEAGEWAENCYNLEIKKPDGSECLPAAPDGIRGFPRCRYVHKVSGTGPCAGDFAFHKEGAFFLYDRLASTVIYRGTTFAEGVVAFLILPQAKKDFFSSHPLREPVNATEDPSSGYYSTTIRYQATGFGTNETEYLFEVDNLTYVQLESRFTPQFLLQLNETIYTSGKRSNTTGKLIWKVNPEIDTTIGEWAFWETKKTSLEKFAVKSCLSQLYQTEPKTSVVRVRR

Galanthus nivalis agglutinin (GNA), sequence (P30617 24-128 limits assumed): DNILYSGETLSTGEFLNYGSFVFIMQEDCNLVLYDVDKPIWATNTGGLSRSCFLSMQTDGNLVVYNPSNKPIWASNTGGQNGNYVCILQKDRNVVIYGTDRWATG

Galanthus nivalis agglutinin (GNA) (from UniProt P30617 24-128)
% Removal at 6 hours [1]: 97% | % Removal (run of 3 hours) (Marburg-GP (Marburg)): 60%
